The results in this text go back to patent EP2226633A1.

The assay deals with heterodimeric LIF receptor (murine gp130 and LIFRα) on transiently transfected Ba/F3 cells (mouse) (UniProt Q00560). Put plainly: cell-based or functional assay.
Sequence of heterodimeric LIF receptor (murine gp130 and LIFRα) on transiently transfected Ba/F3 cells (mouse) (Q00560 23-917, chain 1 of 2): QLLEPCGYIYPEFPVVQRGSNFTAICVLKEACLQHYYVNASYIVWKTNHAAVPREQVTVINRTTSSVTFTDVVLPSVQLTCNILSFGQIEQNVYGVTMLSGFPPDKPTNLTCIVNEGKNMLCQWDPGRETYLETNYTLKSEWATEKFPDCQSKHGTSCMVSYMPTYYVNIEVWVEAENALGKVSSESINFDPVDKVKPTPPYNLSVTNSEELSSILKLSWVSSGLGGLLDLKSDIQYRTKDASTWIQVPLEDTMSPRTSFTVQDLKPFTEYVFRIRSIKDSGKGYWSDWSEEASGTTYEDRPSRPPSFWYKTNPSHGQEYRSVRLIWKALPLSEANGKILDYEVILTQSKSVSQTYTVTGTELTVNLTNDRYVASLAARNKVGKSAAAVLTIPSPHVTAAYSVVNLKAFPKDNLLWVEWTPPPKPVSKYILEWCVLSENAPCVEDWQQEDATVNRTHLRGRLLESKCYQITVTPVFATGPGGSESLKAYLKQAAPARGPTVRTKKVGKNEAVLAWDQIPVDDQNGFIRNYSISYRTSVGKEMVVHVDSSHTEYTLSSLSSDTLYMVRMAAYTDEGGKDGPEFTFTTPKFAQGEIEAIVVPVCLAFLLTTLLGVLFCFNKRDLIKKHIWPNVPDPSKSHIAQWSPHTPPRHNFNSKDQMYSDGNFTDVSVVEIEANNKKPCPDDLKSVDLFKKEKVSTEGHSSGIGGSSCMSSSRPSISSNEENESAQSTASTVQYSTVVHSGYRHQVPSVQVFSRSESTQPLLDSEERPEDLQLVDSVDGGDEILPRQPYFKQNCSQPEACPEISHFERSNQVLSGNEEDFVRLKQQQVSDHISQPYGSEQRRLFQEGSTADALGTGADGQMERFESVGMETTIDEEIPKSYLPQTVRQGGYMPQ
Sequence of heterodimeric LIF receptor (murine gp130 and LIFRα) on transiently transfected Ba/F3 cells (mouse) (P42703 44-1092, chain 2 of 2, further chain): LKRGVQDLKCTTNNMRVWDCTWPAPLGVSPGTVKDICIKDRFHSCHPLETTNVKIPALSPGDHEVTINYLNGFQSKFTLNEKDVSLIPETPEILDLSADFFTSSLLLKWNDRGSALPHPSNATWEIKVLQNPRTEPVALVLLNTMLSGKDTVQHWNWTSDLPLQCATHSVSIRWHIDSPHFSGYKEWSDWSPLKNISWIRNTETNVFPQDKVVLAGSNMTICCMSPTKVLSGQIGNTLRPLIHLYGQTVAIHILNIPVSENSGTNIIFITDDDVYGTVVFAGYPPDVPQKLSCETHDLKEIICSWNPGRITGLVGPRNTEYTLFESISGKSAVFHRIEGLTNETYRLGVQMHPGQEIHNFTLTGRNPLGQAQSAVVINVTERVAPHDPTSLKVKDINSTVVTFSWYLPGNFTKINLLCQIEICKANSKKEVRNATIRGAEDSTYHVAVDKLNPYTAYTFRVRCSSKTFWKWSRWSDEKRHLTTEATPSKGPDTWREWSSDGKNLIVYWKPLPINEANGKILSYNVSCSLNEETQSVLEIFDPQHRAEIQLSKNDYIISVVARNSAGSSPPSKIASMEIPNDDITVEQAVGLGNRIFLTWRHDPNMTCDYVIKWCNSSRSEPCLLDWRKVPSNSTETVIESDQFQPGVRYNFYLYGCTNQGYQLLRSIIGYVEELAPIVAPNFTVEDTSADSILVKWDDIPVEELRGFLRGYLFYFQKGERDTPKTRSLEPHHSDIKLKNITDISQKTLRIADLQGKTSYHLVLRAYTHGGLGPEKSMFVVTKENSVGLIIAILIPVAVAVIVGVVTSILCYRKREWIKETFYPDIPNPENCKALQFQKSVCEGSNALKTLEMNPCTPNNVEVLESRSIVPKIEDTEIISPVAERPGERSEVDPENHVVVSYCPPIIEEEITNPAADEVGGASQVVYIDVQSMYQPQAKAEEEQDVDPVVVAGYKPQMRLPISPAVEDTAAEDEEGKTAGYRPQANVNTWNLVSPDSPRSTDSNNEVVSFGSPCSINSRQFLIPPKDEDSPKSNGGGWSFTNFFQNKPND

For “human EPO splice variant hS3 (complete loss of exon 3) with C-terminal V5/His tag, produced in HEK293 cells (from UniProt P01588 28-193) (ligand)”, the suppression of proliferation of M1 cells (MTT assay, 72 h, 15 nM hS3) amounted to 10%.
